In the experiment the target is Flag-Axin1 (mouse). Briefly: SPR; BIAcore 8K, CM5 chip; Flag-Axin1 immobilised by amine coupling (20 μg/mL, sodium acetate pH 4.5); analytes 25-400 nM, 30 μL/min, 120 s association, 300 s dissociation; step of the Axin1 self-association not told.

Flag-Axin1 (natural protein): the Kd came to 147 nM. This lies in the sub-micromolar range.

B1: Flag-TRIM15 (natural protein)
chain: MPATPSLKVVHELPACTLCAGPLEDAVTIPCGHTFCRLCLPALSQMGAQSSGKILLCPLCQEEEQAETPMAPVPLGPLGETYCEEHGEKIYFFCENDAEFLCVFCREGPTHQAHTVGFLDEAIQPYRDRLRSRLEALSTERDEIEDVKCQEDQKLQVLLTQIESKKHQVETAFERLQQELEQQRCLLLARLRELEQQIWKERDEYITKVSEEVTRLGAQVKELEEKCQQPASELLQDVRVNQSRCEMKTFVSPEAISPDLVKKIRDFHRKILTLPEMMRMFSENLAHHLEIDSGVITLDPQTASRSLVLSEDRKSVRYTRQKKSLPDSPLRFDGLPAVLGFPGFSSGRHRWQVDLQLGDGGGCTVGVAGEGVRRKGEMGLSAEDGVWAVIISHQQCWASTSPGTDLPLSEIPRGVRVALDYEAGQVTLHNAQTQEPIFTFTASFSGKVFPFFAVWKKGSCLTLKG
The molecule B1 registered a Kd of 37.8 nM.

Source of the values: article PMC12859064.
